In patent publication US20120207760A1:

How the values were obtained:
[1] = biological target: recombinant homotrimeric HA, A/Anhui/1/05 H5N1 (Influenza A virus A/Anhui/1/05 (H5N1)); test: trimeric HA microarray, transfection set 2
[2] = biological target: recombinant homotrimeric HA, A/California/4/09 H1N1 (Influenza A virus A/California/4/09 (H1N1)); test: trimeric HA microarray, transfection set 2
[3] = biological target: recombinant homotrimeric HA, A/Egypt/3300-NAMRU3/08 H5N1 (Influenza A virus A/Egypt/3300-NAMRU3/08 (H5N1)); test: trimeric HA microarray, transfection set 2
[4] = biological target: recombinant homotrimeric HA, A/Hong Kong/1073/99 H9N2 (Influenza A virus A/Hong Kong/1073/99 (H9N2)); test: trimeric HA microarray, transfection set 2
[5] = biological target: recombinant homotrimeric HA, A/Hong Kong/2108/03 H9N2 (Influenza A virus A/Hong Kong/2108/03 (H9N2)); test: trimeric HA microarray, transfection set 2
[6] = biological target: recombinant homotrimeric HA, A/Indonesia/5/05 H5N1 (Influenza A virus A/Indonesia/5/05 (H5N1)); test: trimeric HA microarray, transfection set 2
[7] = biological target: recombinant homotrimeric HA, A/Japan/305/57 H2N2 (Influenza A virus A/Japan/305/57 (H2N2)); test: trimeric HA microarray, transfection set 2
[8] = biological target: recombinant homotrimeric HA, A/Netherlands/219/03 H7N7 (Influenza A virus A/Netherlands/219/03 (H7N7)); test: trimeric HA microarray, transfection set 2
[9] = biological target: recombinant homotrimeric HA, A/Solomon Islands/3/06 H1N1 (Influenza A virus A/Solomon Islands/3/06 (H1N1)); test: trimeric HA microarray, transfection set 2
[10] = biological target: recombinant homotrimeric HA, A/South Carolina/1/18 H1N1 (Influenza A virus A/South Carolina/1/18 (H1N1)); test: trimeric HA microarray, transfection set 2
[11] = biological target: recombinant homotrimeric HA, A/Vietnam/1203/04 H5N1 (Influenza A virus A/Vietnam/1203/04 (H5N1)); test: trimeric HA microarray, transfection set 2
[12] = biological target: recombinant homotrimeric HA, A/Wisconsin/67/05 H3N2 (Influenza A virus A/Wisconsin/67/05 (H3N2)); test: trimeric HA microarray, transfection set 2
[13] = biological target: recombinant homotrimeric HA, A/chicken/Vietnam/NCVD-016/08 H5N1 (Influenza A virus A/chicken/Vietnam/NCVD-016/08 (H5N1)); test: trimeric HA microarray, transfection set 2
[14] = biological target: recombinant homotrimeric HA, A/common magpie/Hong Kong/5052/07 H5N1 (Influenza A virus A/common magpie/Hong Kong/5052/07 (H5N1)); test: trimeric HA microarray, transfection set 2
[15] = biological target: recombinant homotrimeric HA, A/duck/Yangzhou/02/05 H8N4 (Influenza A virus A/duck/Yangzhou/02/2005 (H8N4)); test: trimeric HA microarray, transfection set 2
[16] = biological target: recombinant homotrimeric HA, A/northern shoveler/California/HKWF115/07 (Influenza A virus A/northern shoveler/California/HKWF115/2007 (H6N1)); test: trimeric HA microarray, transfection set 2
[17] = biological target: recombinant homotrimeric HA, A/swine/Ontario/01911-2/99 H4N6 (Influenza A virus A/swine/Ontario/01911-2/99 (H4N6)); test: trimeric HA microarray, transfection set 2
[18] = biological target: recombinant homotrimeric HA, A/California/4/09 H1N1 (Influenza A virus A/California/4/09 (H1N1)); test: trimeric HA microarray, transfection set 5
[19] = biological target: recombinant homotrimeric HA, A/Indonesia/5/05 H5N1 (Influenza A virus A/Indonesia/5/05 (H5N1)); test: trimeric HA microarray, transfection set 5
[20] = biological target: recombinant homotrimeric HA, A/Japan/305/57 H2N2 (Influenza A virus A/Japan/305/57 (H2N2)); test: trimeric HA microarray, transfection set 5
[21] = biological target: recombinant homotrimeric HA, A/Solomon Islands/3/06 H1N1 (Influenza A virus A/Solomon Islands/3/06 (H1N1)); test: trimeric HA microarray, transfection set 5
[22] = biological target: recombinant homotrimeric HA, A/South Carolina/1/18 H1N1 (Influenza A virus A/South Carolina/1/18 (H1N1)); test: trimeric HA microarray, transfection set 5
[23] = biological target: recombinant homotrimeric HA, A/Vietnam/1203/04 H5N1 (Influenza A virus A/Vietnam/1203/04 (H5N1)); test: trimeric HA microarray, transfection set 5
[24] = biological target: recombinant homotrimeric HA, A/Wisconsin/67/05 H3N2 (Influenza A virus A/Wisconsin/67/05 (H3N2)); test: trimeric HA microarray, transfection set 5
[25] = biological target: recombinant homotrimeric HA, A/swine/Ontario/01911-2/99 H4N6 (Influenza A virus A/swine/Ontario/01911-2/99 (H4N6)); test: trimeric HA microarray, transfection set 5

TCN-202 (2N9) (antibody)
Trimeric HA Binding RLU [1]: 9 RLU | Trimeric HA Binding RLU [2]: 52 RLU | Trimeric HA Binding RLU [3]: 18 RLU | Trimeric HA Binding RLU [4]: 33 RLU | Trimeric HA Binding RLU [5]: 7 RLU | Trimeric HA Binding RLU [6]: 8 RLU | Trimeric HA Binding RLU [7]: 32 RLU | Trimeric HA Binding RLU [8]: 26 RLU | Trimeric HA Binding RLU [9]: 16 RLU | Trimeric HA Binding RLU [10]: 195 RLU | Trimeric HA Binding RLU [11]: 121 RLU | Trimeric HA Binding RLU [12]: 46 RLU | Trimeric HA Binding RLU [13]: 22 RLU | Trimeric HA Binding RLU [14]: 11 RLU | Trimeric HA Binding RLU [15]: 19 RLU | Trimeric HA Binding RLU [16]: 30 RLU | Trimeric HA Binding RLU [17]: 15 RLU | Trimeric HA Binding RLU [18]: 733 RLU | Trimeric HA Binding RLU [19]: 1970 RLU | Trimeric HA Binding RLU [20]: 1880 RLU | Trimeric HA Binding RLU [21]: 525 RLU | Trimeric HA Binding RLU [22]: 5330 RLU | Trimeric HA Binding RLU [23]: 30000 RLU | Trimeric HA Binding RLU [24]: 581 RLU | Trimeric HA Binding RLU [25]: 2690 RLU
